For experiment [1], the target named is human PD-1 expressed on Jurkat T cells (human, UniProt Q15116 25-288). As to the kind of experiment: cell-based or functional assay.
The target in experiment [2] is T1, recombinant human PD-1 (hPD-1) (human, UniProt Q15116 25-167, limits assumed). As to the kind of experiment: BLI (ForteBio Octet); ASC captured on AHC biosensor, hPD-1 titrated from 100 nM in a 2x series; 1:1 fit. The protocol: ASCs were captured on an AHC (Anti-human IgG-Capture) biosensor. hPD-1 analytes were titrated from 100 nM in a 2× series dilution. The signal was subtracted with buffer reference and aligned to baseline. KD, Kon and Koff values were generated using a 1:1 fitting model.
(In BLI a coated tip is dipped into the sample, and binding shifts an interference pattern.)

The target in experiment [3] is T1, recombinant human PD-1 (hPD-1). As to the kind of experiment: competition ELISA: antibody titrated 3x and mixed with biotinylated hPD-L1-Fc (1 ug/mL), loaded on hPD-1-coated wells; residual hPD-L1-Fc detected with streptavidin-HRP, A450. The source says: The plate was developed with TMB and Stop buffer and the absorbance at 450 nm was read using a SpectraMax plate reader. A450 absorbance curves and IC50S were generated using GraphPad Prism software.

T1 sequence (Q15116 25-167 limits assumed): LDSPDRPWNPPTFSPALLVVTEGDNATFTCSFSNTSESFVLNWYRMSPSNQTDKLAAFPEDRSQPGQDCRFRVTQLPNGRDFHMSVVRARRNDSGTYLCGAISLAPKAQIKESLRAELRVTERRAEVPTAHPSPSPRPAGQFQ
Sequence of human PD-1 expressed on Jurkat T cells (Q15116 25-288): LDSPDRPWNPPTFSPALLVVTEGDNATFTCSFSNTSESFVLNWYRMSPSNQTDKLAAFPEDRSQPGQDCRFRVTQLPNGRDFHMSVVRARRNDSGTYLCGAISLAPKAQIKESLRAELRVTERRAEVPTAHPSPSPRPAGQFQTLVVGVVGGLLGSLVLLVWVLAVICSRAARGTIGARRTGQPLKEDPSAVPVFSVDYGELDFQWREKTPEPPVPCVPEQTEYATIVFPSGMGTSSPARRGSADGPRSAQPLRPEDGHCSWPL

B1: ASC #3 (Janus anti-PD-1 antibody sialidase conjugate) (antibody, human IgG1, kappa, N297A)
light: EIVLTQSPATLSLSPGERATLSCRASKGVSTSGYSYLHWYQQKPGQAPRLLIYLASYLESGVPARFSGSGSGTDFTLTISSLEPEDFAVYYCQHSRDLPLTFGGGTKVEIKRTVAAPSVFIFPPSDEQLKSGTASVVCLLNNFYPREAKVQWKVDNALQSGNSQESVTEQDSKDSTYSLSSTLTLSKADYEKHKVYACEVTHQGLSSPVTKSFNRGEC
heavy: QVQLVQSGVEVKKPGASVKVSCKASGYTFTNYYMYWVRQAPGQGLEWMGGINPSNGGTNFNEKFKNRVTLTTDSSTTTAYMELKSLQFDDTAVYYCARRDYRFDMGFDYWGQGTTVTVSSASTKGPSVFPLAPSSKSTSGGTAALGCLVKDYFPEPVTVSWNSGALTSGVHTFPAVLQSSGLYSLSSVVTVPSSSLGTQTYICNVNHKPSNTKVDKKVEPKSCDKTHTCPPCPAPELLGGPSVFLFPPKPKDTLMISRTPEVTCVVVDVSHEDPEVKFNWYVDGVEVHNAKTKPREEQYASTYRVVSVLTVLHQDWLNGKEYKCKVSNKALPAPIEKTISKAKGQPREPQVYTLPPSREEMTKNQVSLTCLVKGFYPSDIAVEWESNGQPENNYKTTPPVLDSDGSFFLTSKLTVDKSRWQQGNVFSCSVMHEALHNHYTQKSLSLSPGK
chain: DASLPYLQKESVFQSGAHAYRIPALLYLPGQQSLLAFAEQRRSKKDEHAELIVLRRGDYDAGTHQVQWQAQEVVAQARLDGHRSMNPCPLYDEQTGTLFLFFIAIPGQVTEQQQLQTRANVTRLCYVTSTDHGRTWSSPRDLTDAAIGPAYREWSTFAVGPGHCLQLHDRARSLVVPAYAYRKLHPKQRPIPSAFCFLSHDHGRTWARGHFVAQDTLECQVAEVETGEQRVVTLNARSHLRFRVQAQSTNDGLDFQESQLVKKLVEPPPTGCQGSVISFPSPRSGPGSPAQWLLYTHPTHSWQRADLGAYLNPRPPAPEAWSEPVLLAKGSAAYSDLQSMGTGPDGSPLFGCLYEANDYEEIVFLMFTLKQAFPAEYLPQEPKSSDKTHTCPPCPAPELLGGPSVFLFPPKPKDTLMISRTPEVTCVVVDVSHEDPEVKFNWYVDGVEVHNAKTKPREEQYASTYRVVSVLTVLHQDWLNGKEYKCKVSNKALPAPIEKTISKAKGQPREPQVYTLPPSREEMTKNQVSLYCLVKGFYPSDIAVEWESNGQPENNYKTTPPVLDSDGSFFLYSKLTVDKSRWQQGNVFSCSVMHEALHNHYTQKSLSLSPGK
notes: Janus format: one antibody arm (one heavy and one light chain) and one sialidase-Fc fusion, heterodimerised by knob (T366Y) and hole (Y407T) mutations; also called ASC #3-1; ASC #3-2
For orientation: Kd means a measure of binding affinity in units of concentration. With B1, the “EC50 (nM), fold induction of NFAT-driven luciferase” value in experiment [1] came to 7.23 nM. Further, the Kd in experiment [2] came out at 10.3 nM. The “IC50 (read off the curve)” value in experiment [3] was about 7 nM.
